The numbers were not newly measured in publication PMC5911825, which cites them from elsewhere.

The pKa is the pH at which an ionisable group is half protonated.

The target of the data set is Cys797 (UniProt position 797, LMPFGCLLDYV). Description: other (described only as 'titration experiments'). As to conditions: wild-type EGFR; ligand state not stated.

For “Epidermal growth factor receptor (EGFR), wild type (Homo sapiens)”, the pKa is given as 5.5.
